Test results from paper PMC12241546, “PRELP functions via multiple interactions with intrinsically weak affinity relying on ECM anchoring and remodeling” (Scientific Reports, 2025).

B4: Recombinant human full-length PRELP (proline/arginine-rich end leucine-rich repeat protein) (natural protein, UniProt P51888 21-382, looked up)
chain: QPTRRPRPGTGPGRRPRPRPRPTPSFPQPDEPAEPTDLPPPLPPGPPSIFPDCPRECYCPPDFPSALYCDSRNLRKVPVIPPRIHYLYLQNNFITELPVESFQNATGLRWINLDNNRIRKIDQRVLEKLPGLVFLYMEKNQLEEVPSALPRNLEQLRLSQNHISRIPPGVFSKLENLLLLDLQHNRLSDGVFKPDTFHGLKNLMQLNLAHNILRKMPPRVPTAIHQLYLDSNKIETIPNGYFKSFPNLAFIRLNYNKLTDRGLPKNSFNISNLLVLHLSHNRISSVPAINNRLEHLYLNNNSIEKINGTQICPNDLVAFHDFSSDLENVPHLRYLRLDGNYLKPPIPLDLMMCFRLLQSVVI
notes: human PRELP, amino acid residues 21-382 (Uniprot numbering); source: Mimic Sf9 cells, purified from the supernatant (DDDDK-tagged Protein Purification Gel, Benzonase, SEC); not shown: FLAG, C-terminal, kept
B5: Recombinant extracellular domain of human p75NTR (low-affinity nerve growth factor receptor) (receptor, UniProt P08138 29-189, looked up)
chain: KEACPTGLYTHSGECCKACNLGEGVAQPCGANQTVCEPCLDSVTFSDVVSATEPCKPCTECVGLQSMSAPCVEADDAVCRCAYGYYQDETTGRCEACRVCEAGSGLVFSCQDKQNTVCEECPDGTYSDEANHVDPCLPCTVCEDTERQLRECTRWADAECE
notes: also called p75NTR ectodomain; source: Sf9 cells, purified from the culture supernatant (Ni-NTA, SEC)

Columns and labels:
Conditions in all cases: both partners purified
[1] = biological target: T1, Recombinant extracellular domain of human IGFI-R (insulin-like growth factor I receptor) (human, UniProt P08069 31-935); assay: SPR; Biacore T200; PRELP proteins immobilised on CM5 by amine coupling (about 4000 RU; chPRELP about 600 RU for IGFI-R, 2000 RU for p75NTR); IGFI-R or p75NTR injected at 30 µL/min; 10 mM HEPES pH 7.5, 150 mM NaCl, 0.05% Tween-20, 15 °C; equilibrium curve fitting
T1 construct: extracellular domain of human IGFI-R, amino acid residues 31-935 (Uniprot); also called IGFI-R ectodomain; source: ExpiCHO cells, purified from the culture supernatant (Ni-NTA, SEC)
T1 sequence (P08069 31-935): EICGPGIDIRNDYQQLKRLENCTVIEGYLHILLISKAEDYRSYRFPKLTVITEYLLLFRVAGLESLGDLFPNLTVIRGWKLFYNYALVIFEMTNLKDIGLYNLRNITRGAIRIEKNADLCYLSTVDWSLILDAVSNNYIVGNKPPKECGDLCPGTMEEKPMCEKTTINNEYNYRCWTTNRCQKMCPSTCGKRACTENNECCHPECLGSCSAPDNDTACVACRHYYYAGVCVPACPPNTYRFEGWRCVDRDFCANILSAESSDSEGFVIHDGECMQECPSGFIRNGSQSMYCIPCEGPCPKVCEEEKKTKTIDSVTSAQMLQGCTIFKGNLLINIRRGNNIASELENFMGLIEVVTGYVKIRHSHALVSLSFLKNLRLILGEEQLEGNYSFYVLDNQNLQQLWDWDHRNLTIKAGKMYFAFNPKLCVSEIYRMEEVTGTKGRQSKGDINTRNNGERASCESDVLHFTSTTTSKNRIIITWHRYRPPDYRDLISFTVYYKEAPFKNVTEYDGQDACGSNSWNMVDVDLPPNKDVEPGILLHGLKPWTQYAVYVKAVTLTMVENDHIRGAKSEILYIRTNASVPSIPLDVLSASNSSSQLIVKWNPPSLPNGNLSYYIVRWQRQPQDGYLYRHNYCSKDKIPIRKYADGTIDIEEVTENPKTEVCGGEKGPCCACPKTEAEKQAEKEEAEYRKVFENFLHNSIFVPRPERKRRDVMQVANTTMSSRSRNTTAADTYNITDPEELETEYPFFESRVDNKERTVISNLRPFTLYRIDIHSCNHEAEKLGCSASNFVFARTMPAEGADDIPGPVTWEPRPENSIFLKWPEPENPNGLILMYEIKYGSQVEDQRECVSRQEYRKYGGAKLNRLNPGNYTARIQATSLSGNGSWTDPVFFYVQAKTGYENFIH

[2] = biological target: B5; assay: as above
[3] = biological target: T2, Recombinant mature TGFβ1 dimer (transforming growth factor β1) (human, UniProt P01137 279-390); assay: SPR; Biacore T200; PRELP proteins immobilised on CM5 by amine coupling (about 400 RU; chPRELP about 600 RU); TGFβ1 or TGFβRII injected at 30 µL/min; 10 mM HEPES pH 7.5, 150 mM NaCl, 50 mM arginine-HCl, 0.05% Tween-20, 15 °C; global fitting
T2 construct: mature TGFβ1 cut from the human TGFβ1 pro-protein (expressed as amino acid residues 30-390, Uniprot, with C33S in the pro-region); source: ExpiCHO cells, transfected
T2 sequence (P01137 279-390): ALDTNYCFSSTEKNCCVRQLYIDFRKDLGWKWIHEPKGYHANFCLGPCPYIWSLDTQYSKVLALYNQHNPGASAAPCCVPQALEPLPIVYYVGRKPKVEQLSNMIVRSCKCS

[4] = biological target: T1, Recombinant extracellular domain of …; assay: SPR; Biacore T200; PRELP proteins immobilised on CM5 by amine coupling (about 4000 RU; chPRELP about 600 RU for IGFI-R, 2000 RU for p75NTR); IGFI-R or p75NTR injected at 30 µL/min; 10 mM HEPES pH 7.5, 150 mM NaCl, 0.05% Tween-20, 15 °C; equilibrium curve fitting; remark: listed apart in the source
[5] = biological target: B4; assay: as above

B1: N-terminal-truncated PRELP ΔNT24 (domain or fragment)
chain: SFPQPDEPAEPTDLPPPLPPGPPSIFPDCPRECYCPPDFPSALYCDSRNLRKVPVIPPRIHYLYLQNNFITELPVESFQNATGLRWINLDNNRIRKIDQRVLEKLPGLVFLYMEKNQLEEVPSALPRNLEQLRLSQNHISRIPPGVFSKLENLLLLDLQHNRLSDGVFKPDTFHGLKNLMQLNLAHNILRKMPPRVPTAIHQLYLDSNKIETIPNGYFKSFPNLAFIRLNYNKLTDRGLPKNSFNISNLLVLHLSHNRISSVPAINNRLEHLYLNNNSIEKINGTQICPNDLVAFHDFSSDLENVPHLRYLRLDGNYLKPPIPLDLMMCFRLLQSVVI
modifications: secreted from insect cells (Mimic Sf9), possible N-glycans; C-terminal FLAG tag omitted. The start at 45 is 24 residues removed from the printed mature construct 21-382, which matches removal of the …
Kd [1]: 3.9 µM
Kd [2]: 11.3 µM
Kd [3]: 0.512 µM
koff [3]: 0.142 s⁻¹
kon [3]: 277000 M⁻¹ s⁻¹

B2: N-terminal-truncated PRELP ΔNT50 (domain or fragment)
chain: PDCPRECYCPPDFPSALYCDSRNLRKVPVIPPRIHYLYLQNNFITELPVESFQNATGLRWINLDNNRIRKIDQRVLEKLPGLVFLYMEKNQLEEVPSALPRNLEQLRLSQNHISRIPPGVFSKLENLLLLDLQHNRLSDGVFKPDTFHGLKNLMQLNLAHNILRKMPPRVPTAIHQLYLDSNKIETIPNGYFKSFPNLAFIRLNYNKLTDRGLPKNSFNISNLLVLHLSHNRISSVPAINNRLEHLYLNNNSIEKINGTQICPNDLVAFHDFSSDLENVPHLRYLRLDGNYLKPPIPLDLMMCFRLLQSVVI
modifications: secreted from insect cells (Mimic Sf9), possible N-glycans; C-terminal FLAG tag omitted. The start at 71 is 50 residues removed from the printed mature construct 21-382, just before the Cys-rich …
Kd [1]: 6.97 µM
Kd [2]: 11.7 µM
Kd [3]: 1.55 µM
koff [3]: 0.169 s⁻¹
kon [3]: 75100 M⁻¹ s⁻¹

B3: Recombinant chimeric PRELP (human PRELP 1-268 joined to Listeria monocytogenes internalin B 189-248) (other)
chain: QPTRRPRPGTGPGRRPRPRPRPTPSFPQPDEPAEPTDLPPPLPPGPPSIFPDCPRECYCPPDFPSALYCDSRNLRKVPVIPPRIHYLYLQNNFITELPVESFQNATGLRWINLDNNRIRKIDQRVLEKLPGLVFLYMEKNQLEEVPSALPRNLEQLRLSQNHISRIPPGVFSKLENLLLLDLQHNRLSDGVFKPDTFHGLKNLMQLNLAHNILRKMPPRVPTAIHQLYLDSNKIETIPNGYFKSFPNLDTLSLEDNQISDIVPLAGLTKLQNLYLSKNHISDLRALAGLKNLDVLELFSQECLNKPIN
notes: signal peptide in the construct; human PRELP, amino acid residues 1-268 (Uniprot), N-terminal half portion with LRR1-7; also called chPRELP; source: Expi293 cells, transfected, purified from the culture supernatant (FLAG-tag purification, SEC)
Kd [1]: 15.4 µM
Kd [2]: 14.5 µM
Kd [3]: 1.21 µM
koff [3]: 0.362 s⁻¹
kon [3]: 241000 M⁻¹ s⁻¹

B4
Kd [4]: 7.09 µM

B5
Kd [5]: 12.7 µM
